In patent US20150147342A1 (published 2015):

Experiments:
Assay in all cases: SPR, hIgG1 antibody captured, room temp
[1] = molecular target: T1, Dimeric fibrinogen-like domain of human Ang-2 conjugated to human IgG1 (human)
T1 construct: also called Dimeric Human Ang-2FD; Human Ang-2FD-hFc
Procedure: (§1) Antibody was captured on a goat anti-mouse IgG polyclonal antibody surface, a goat anti-human κ polyclonal antibody (Southern Biotech, Birmingham, Ala.) surface or a goat anti-human IgG polyclonal antibody (Jackson Immuno Research Lab, West Grove, Pa.) surface created through direct amine coupling to a BIACORE™ CM5 sensor chip to form a captured antibody surface. […] Antigen-antibody binding and dissociation were monitored in real time at room temperature. Kinetic analysis was performed to calculate KD and half-life of antigen/antibody complex dissociation.
(§2) The above experiment was repeated using selected purified anti-Ang-2 antibodies cloned onto human IgG1.

[2] = molecular target: T2, Dimeric fibrinogen-like domain of mouse (Mus musculus) Ang-2 conjugated to human IgG1 (mouse (Mus musculus))
T2 construct: also called Dimeric Mouse Ang-2FD; Mouse Ang-2FD-hFc
T2 sequence (chain, as listed by the source limits assumed): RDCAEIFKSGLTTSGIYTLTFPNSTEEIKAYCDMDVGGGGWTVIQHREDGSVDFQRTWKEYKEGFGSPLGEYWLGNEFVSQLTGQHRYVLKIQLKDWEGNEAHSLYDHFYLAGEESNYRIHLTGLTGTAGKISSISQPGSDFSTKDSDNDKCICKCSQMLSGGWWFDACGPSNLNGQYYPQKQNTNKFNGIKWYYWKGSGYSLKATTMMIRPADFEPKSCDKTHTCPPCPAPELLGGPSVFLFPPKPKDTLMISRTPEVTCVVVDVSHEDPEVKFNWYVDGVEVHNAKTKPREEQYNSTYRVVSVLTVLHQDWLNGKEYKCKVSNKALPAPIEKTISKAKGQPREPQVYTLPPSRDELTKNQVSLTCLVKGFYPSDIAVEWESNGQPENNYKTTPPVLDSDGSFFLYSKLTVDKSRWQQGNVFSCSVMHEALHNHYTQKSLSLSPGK
Procedure: as §1, §2

[3] = molecular target: T3, Dimeric fibrinogen-like domain of monkey (Macca fascicularis) Ang-2 conjugated to human IgG1 (monkey (Macca fascicularis))
T3 construct: also called Dimeric Monkey Ang-2FD; Monkey Ang-2FD-hFc
T3 sequence (chain, as listed by the source limits assumed): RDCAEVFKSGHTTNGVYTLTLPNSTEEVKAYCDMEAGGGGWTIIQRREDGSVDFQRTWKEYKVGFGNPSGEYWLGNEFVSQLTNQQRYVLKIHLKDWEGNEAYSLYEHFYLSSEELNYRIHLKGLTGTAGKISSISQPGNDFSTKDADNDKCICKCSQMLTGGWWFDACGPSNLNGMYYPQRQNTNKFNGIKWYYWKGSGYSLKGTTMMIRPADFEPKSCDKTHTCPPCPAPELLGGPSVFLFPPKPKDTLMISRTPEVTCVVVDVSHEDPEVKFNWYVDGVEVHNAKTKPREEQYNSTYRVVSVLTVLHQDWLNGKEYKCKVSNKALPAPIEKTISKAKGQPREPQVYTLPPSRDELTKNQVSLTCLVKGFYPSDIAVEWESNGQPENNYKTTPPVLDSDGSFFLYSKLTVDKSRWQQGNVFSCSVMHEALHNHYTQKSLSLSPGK
Procedure: as §1, §2

T1 sequence (chain, as listed by the source limits assumed): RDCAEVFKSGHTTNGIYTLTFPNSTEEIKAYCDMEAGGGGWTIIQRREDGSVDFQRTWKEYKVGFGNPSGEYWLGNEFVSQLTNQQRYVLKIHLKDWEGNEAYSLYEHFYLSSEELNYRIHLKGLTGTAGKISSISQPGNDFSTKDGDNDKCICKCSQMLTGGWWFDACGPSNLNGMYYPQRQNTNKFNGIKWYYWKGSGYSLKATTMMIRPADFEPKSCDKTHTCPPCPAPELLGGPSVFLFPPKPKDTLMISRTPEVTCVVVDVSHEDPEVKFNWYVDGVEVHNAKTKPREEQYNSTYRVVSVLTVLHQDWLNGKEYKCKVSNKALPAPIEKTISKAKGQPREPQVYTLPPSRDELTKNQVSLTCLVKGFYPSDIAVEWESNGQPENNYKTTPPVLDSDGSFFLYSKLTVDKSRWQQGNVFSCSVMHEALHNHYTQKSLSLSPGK

Row | Binder | Kd [1] [nM] | T1/2 [1] [h] | Kd [2] [nM] | T1/2 [2] [h] | Kd [3] [nM] | T1/2 [3] [h]
1 | H1H704P (antibody, V domains shown) VH: QVQLVESGGDVVQPGRSLRLSCAASGFTFSSYGMHWVRQAPGKGLEWVAIIWYDGSNKYYADSVKGRFTISRDNSKNTLYLQMNSLRVEDTAVYSCARDFSISSRHFDYWGQGTLVTVSS VL: DIQMTQSPSSLSASVGDRVTITCRASQAINNYLAWFQQKPGKAPKSLIYATSNLQSGVPSQFSGSGSGTDYTLTISSLQPEDFATYYCQQYYIYPITFGQGTRLEIK | 0.331 | 1.43 | 0.484 | 1.03 | 0.818 | 0.558
2 | H1H707P (antibody, V domains shown) VH: QVQLVESGGGVVQPGRSLRLSCAASGFTFSSYGMHWVRQAPDKGLEWVAVKWDDGSNKYYADSVKGRFTISRDNSKNTLYLQMNSLRAEDTAVYYCAREGPYDFYSGYGAFDIWGQGTMVTVSS VL: not shown | 0.262 | 0.443 | 0.328 | 0.573 | 0.283 | 0.372
3 | H1H732N (antibody, V domains shown) VH: EVQLVESGGGLVRPGGSLRLSCAASGFTFTNAWMSWVRQAPGKGLEWIGQIKSKTDGGTIDYAAPVKGRFTVSRDDSENTLFLQMNSLKTEDTAVYYCAGNWNYVDFDYWGQGTLVTVSS VL: DIQMTQSPSSLSASVGDRVTITCRASQDIRNDLGWYQQKPGKAPKRLIYAASSLQGGVPSRFSGSGSGTEFTLTISSLQPEDFATYYCLQHNSYPFTFGPGTKVDIK | 0.386 | 0.95 | 0.529 | 0.85 | 0.439 | 1.97
4 | H1H693P (antibody, V domains shown) VH: EVQLVESGGGLVQPGESLRLSCAASGFTFSSYAMSWVRQGPGKGLEWVSSISGSGGTTYYADSVEGRFTISRDNSKNTLYLHMNSLRAEDTAVYYCAKDFLDYSTYLAFDLWGQGTMVTVSS VL: DIQMTQSPSSVSASVGDRVTITCRASQGISSWLAWYQQKPGKAPKLLIYAASSLQSGVPSRFSGSGSGTDFTLTISSLQPEDFATYYCQQANSFPRTFGQGTKVEIK | 0.5 | 0.618 | 0.446 | 1.06 | 1.17 | 0.293
5 | H1H695P (antibody, V domains shown) VH: QVQLVESGGGVVQPGRSLRLSCAASGFTFSSYGMHWVRQAPGKGLEWVAVMWYDETNKYYADSVKGRFTISRDNSKNTLYLQMNSLRAEDTAVYYCARYSGYEDYYHGMDVWGQGTTVTVS VL: EIVMTQSPATPSVSPGERATLSCRASQSISSNLAWYQQKPGQAPRLLIYGASTRATGIPARFSGSGSGTEFTLTISSLQSEDFAVYYCQHYNNWITFGQGTRLEIK | 0.245 | 2.45 | 0.347 | 2.07 | 0.44 | 1.4
6 | H1H696P (antibody, V domains shown) VH: QVQLVESGGGLVKPGGSLRLSCAASGFTFSDYYMSWIRQAPGKGLEWVSYISYTGRTIYYADSVKGRFTISRDNAKNSLYLQMNSLRAEDTAVYYCARDTDYGDFFDYWGQGTLVTVSS VL: DIQMTQSPSSLSASVGDRVTITCRASQGISNYLAWFQQKPGKAPKSLIYAASSLQSGVPSKFSGSGSGTDFTLTISSLQPEDFATYYCQQYNSYPLTFGGGTKVEIK | 0.289 | 0.647 | 0.402 | 0.627 | 0.354 | 0.61

These reach a lower Kd [1]. Values come first.

Row | Kd [1] [nM] | T1/2 [1] [h] | Kd [2] [nM] | T1/2 [2] [h] | Kd [3] [nM] | T1/2 [3] [h] | Binder
7 | 0.201 | 0.84 | 0.357 | 0.783 | 0.164 | 0.888 | H1H706P (antibody, V domains shown) VH: QVQLVESGGGVVQPGRSLRLSCAASGFTFSSYGMHWVRQAPDKGLEWVAVKWDDGSNKYYADSVKGRFTISRDNSKNTLYLQMNSLRAEDTAVYYCAREGPYDFYSGYGAFDIWGQGTMVTVSS VL: DIQMTQSPSSLSASVGDRVTITCRASQGISNYLAWFQQKPGKAPKSLIYAASSLQSGVPSKFSGSGSGTDFTLTISSLQPEDFATYYCQQYNSYPRTFGQGTKVEIK
8 | 0.115 | 1.78 | 0.185 | 1.4 | 0.239 | 2.88 | H1H724N (antibody, V domains shown) VH: QVQLVESGGGVVQPGRSLRLSCAASGFTLSNYGMHWVRQAPGKGLEWVAVIWHDGSNTYYADSVKGRFTISRDNSKNTLYLQMNSLRAEDTAVYYCTREGLDFWSGYYPNWFDPWGQGTLVTVSS VL: DIQMTQSPSSLSASVGDRVTITCRASQGIRNDLGWYQQKPGKAPKRLIYAASNLQGGVPSRFSGSGSGTEFTLTISSLQPEDFAAYYCLQHNIYPLTFGGGTKVEIK
9 | 0.162 | 1.35 | 5.76 | 0.333 | 2 | 1.28 | H1H728N (antibody, V domains shown) VH: EVQLVESGGDLVQPGGSLRLSCTASGFTFSKYWMTWVRQAPGRGLEWVANIKEDGNEKYFLDSVKGRFTISRDNAKDLLFLQMNSLRGEDTAVYYCVRDRGIEVAGPFDYWGQGTLVTVSS VL: DIQMTQSPSTLSASVGDRVTVTCRASQTIINWLAWYQQKPGKAPKLLISKASSLESGVPSRFSGSGSGTEFTLTISSLQPDDFATYYCQQYNRYWTFGQGTMVEIK
10 | 0.234 | 1.03 | 0.0971 | 1.5 | 3.4 | 1.45 | H1H730N (antibody, V domains shown) VH: EVQLVESGGGLVQPGGSLRLSCAASGFAFRSYWMTWVRQAPGKGLEWVANIQQDGNDKYYVDSVKGRFTISRDNAKNSLYLQMNSLRAEDTAVYYCARDTGIAEAGPFDYWGQGTLVTVSS VL: DIQMTQSPSTLSASVGDRVSITCRASQTIISWLAWYQQKPGKAPRLLIYKASSLESGVPSRFSGSGSGTEFTLTINSLQPDDFATYYCQQYNRYWTFGQGTKVEIK
11 | 0.186 | 1.08 | 0.276 | 0.967 | 0.683 | 1.55 | H1H742N (antibody, V domains shown) VH: DVQLLESGGDLVQPGGSLRLSCEASGFTFRNYVMIWVRQAPGKGLEWVSGISNSGGTTHYTDSVKGRFTISRDNSKNTLYLQINSLRAEDTAVYYCAKGYLDTSLIEGNWFDPWGQGTLVTVSS VL: NIVMTQSPLSLPVTPGEPASISCRSSQSLLHSNGFNYLNWFLQKPGQSPQLLIYLGSNRASGVPDKFSGSGSGTDFTLNINRVEAEDVGIYFCMQTLQTPLTFGGGTKVEIK
12 | 0.0882 | 4.23 | 0.124 | 3.88 | 0.0965 | 13 | H1H743N (antibody, V domains shown) VH: EVQLLESGGGLVQPGGSLRLSCAASGFTFRKYAMSWVRQAPGKGLEWVSVISVSGGNTYYADSVKGRFTISRDNSKNTLYLQLNSLRAEDTAVYYCAKDLTDIVLMVYVDYWGQGTLVTVSS VL: DIQMTQSPSSVSASVGDRVTITCRASQDIDRWLAWYQQKPGKAPKLLIYAASSLQSGVPSRFSGSGSGTDFTLTISTLQPEDFATYYCQQANSLPFTFGGGTKVEIK
13 | 0.118 | 1.82 | 0.177 | 1.6 | 0.407 | 2.38 | H1H749N (antibody, V domains shown) VH: QVQLVESGGGVVQPGRSLRLSCAASGFTFSSYGMHWVRQAPGKGLEWVAVIWYDEFNKYYADSVKGRFTISRDNSKNTLYLQMNSLRAEDTAVYYCARERESGYSYGFDYWGQGTLVTVSS VL: EIVMTQSPATLSVSPGERATLSCRAGQSVSSNLAWYQQKPGQAPRLLIYGASTRATGIPARFSGSGSGTEFTLTISSLQSEDFAVYYCQQYNNWWTFGQGTKVEIK
14 | 0.164 | 2.12 | 0.218 | 2.02 | 0.199 | 4.07 | H1H750N (antibody, V domains shown) VH: QVKLVESGGGVVQPGRSLRVSCAASGFTFSSYGMHWVRQAPGKGLEWLAIIWYDGDNKYYSDSVKGRFTISRDNSKNTLYLQMNSLRAEDTAEYYCVRDASIASRFLDYWGQGTLVTVSS VL: DIQMTQSPSSLSASIGDRVTITCRATQDINNYLAWFQQKPGKAPKSLIYATSNLQSGVPSKFSGSGSGTDYTLTISSLQPEDFSTYYCQQYHSYPLTFGGGTKVEIK
15 | 0.079 | 2.1 | 0.0913 | 1.75 | 0.0556 | 3.25 | H1H690P (antibody, V domains shown) VH: EVQLVESGGGLVQPGESLRLSCAASGFTFSSYAMSWVRQGPGKGLEWVSSITGSGDTTYYADSVKGRFTISRDNSKNTLYLHMNSLRAEDTAVYYCAKDFLDYSTYLAFDLWGQGTMVTVSS VL: EIVLTQSPATLSLSPGERATLSCRASQSVSSYLTWYQQKPGQAPRLLSYDASNRATGIPARFSGSGSGTDFTLTISSLEPEDFAVYYCQQRSNWPLTFGGGTKVEIK
16 | 0.22 | 0.642 | 0.22 | 0.73 | 0.29 | 0.683 | H1H691P (antibody, V domains shown) VH: EVQLVESGGGLVQPGRSLRLSCAASGFTFDDYAMHWVRQAPGKGLEWVSGISWNSGDIGYADSVKGRFTISRDNAKNSLYLQMNSLRAQDTALYYCAKAYGDYYYFYGMDVWGQGTTVTVS VL: EIVLTQSPGTLSLSPGERATLSCRASQSVSSSYLAWYQQKPGQAPRLLIFSASSRATGIPDRFSGSGSGTDFTLTISRLEPEDFAVYYCQQYDNSLTFGGGTKVEIK
